The test concerns the target N-terminal domain of eIF2α (eIF2α-NTD), amino acids 2–187 (UniProt P05198).
Sequence of UniProt P05198 (P05198 2-187): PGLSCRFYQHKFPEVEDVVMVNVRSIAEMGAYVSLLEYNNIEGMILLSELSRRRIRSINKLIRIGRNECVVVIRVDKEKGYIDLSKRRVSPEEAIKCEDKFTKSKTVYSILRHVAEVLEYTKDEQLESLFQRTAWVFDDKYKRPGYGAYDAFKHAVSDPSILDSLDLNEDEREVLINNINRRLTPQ

For the substance “human GCN2 G1109R variant, 3xFLAG tagged (from UniProt Q9P2K8 1-1649) (enzyme)”, the eIF2α-S51 phosphorylation of eIF2α-NTD (1 μM) by immunopurified GCN2 variant in the in vitro kinase assay, percent was 27.2%.
The value for “human GCN2 P1115L variant, 3xFLAG tagged (from UniProt Q9P2K8 1-1649) (enzyme)” was 12.9%.

The record behind these values is article PMC11336063.
